# Values quoted from earlier work in US20210137911A1, “NOVEL CHRONOTHERAPY BASED ON CIRCADIAN RHYTHMS” (THE TRUSTEES OF THE UNIVERSITY OF PENNSYLVANIA, priority 2014, published 2021).
# Details: in vivo
row,Molecule,½ Life [h]
1,"Filgrastim (protein, chains of the INN, looked up, N-terminal methionine) MTPLGPASSLPQSFLLKCLEQVRKIQGDGAALQEKLCATYKLCHPEELVLLGHSLGIPWAPLSSCPSQALQLAGCLSQLHSGLFLYQGLLQALEGISPELGPTLDTLQLDVADFATTIWQQMEELGMAPALQPTQGAMPAFASAFQRRAGGVLVASHLQSFLEVSYRVLRHLAQP",3.5
2,"Idursulfase (protein, UniProt P22304 34-455; P22304 456-550, looked up) Iduronate 2-sulfatase 42 kDa …: TDALNVLLIIVDDLRPSLGCYGDKLVRSPNIDQLASHSLLFQNAFAQQAVCAPSRVSFLTGRRPDTTRLYDFNSYWRVHAGNFSTIPQYFKENGYVTMSVGKVFHPGISSNHTDDSPYSWSFPPYHPSSEKYENTKTCRGPDGELHANLLCPVDVLDVPEGTLPDKQSTEQAIQLLEKMKTSASPFFLAVGYHKPHIPFRYPKEFQKLYPLENITLAPDPEVPDGLPPVAYNPWMDIRQREDVQALNISVPYGPIPVDFQRKIRQSYFASVSYLDTQVGRLLSALDDLQLANSTIIAFTSDHGWALGEHGEWAKYSNFDVATHVPLIFYVPGRTASLPEAGEKLFPYLDPFDSASQLMEPGRQSMDLVELVSLFPTLAGLAGLQVPPRCPVPSFHVELCREGKNLLKHFRFRDLEEDPYLPG Iduronate 2-sulfatase 14 kDa …: NPRELIAYSQYPRPSDIPQWNSDKPSLKDIKIMGYSIRTIDYRYTVWVGFNPDEFLANFSDIHAGELYFVDSDPLQDHNMYNDSQGGDLFQLLMP",0.733
3,"Tenecteplase (protein, UniProt P00750 36-562, looked up, variant T103N N117Q K296A H297A R298A R299A) Tissue-type plasminogen …: SYQVICRDEKTQMIYQQHQSWLRPVLRSNRVEYCWCNSGRAQCHSVPVKSCSEPRCFNGGTCQQALYFSDFVCQCPEGFAGKCCEIDTRATCYEDQGISYRGNWSTAESGAECTNWQSSALAQKPYSGRRPDAIRLGLGNHNYCRNPDRDSKPWCYVFKAGKYSSEFCSTPACSEGNSDCYFGNGSAYRGTHSLTESGASCLPWNSMILIGKVYTAQNPSAQALGLGKHNYCRNPDGDAKPWCHVLKNRRLTWEYCDVPSCSTCGLRQYSQPQFRIKGGLFADIASHPWQAAIFAAAAASPGERFLCGGILISSCWILSAAHCFQERFPPHHLTVILGRTYRVVPGEEEQKFEVEKYIVHKEFDDDTYDNDIALLQLKSDSSRCAQESSVVRTVCLPPADLQLPDWTECELSGYGKHEALSPFYSERLKEAHVRLYPSSRCTSQHLLNRTVTDNMLCAGDTRSGGPQANLHDACQGDSGGPLVCLNDGRMTLVGIISWGLGCGQKDVPGVYTKVTNYLDWIRDNMRP",1.9
